Test results as given in article PMC5053164.

Assay: expression yield of multisite mutants
Conditions: glycan lost; control: wild type

Row | Protein | expression_or_secretion, percent_of_wt
1 | DORN1 extracellular domain (atDORN1-ECD; LecRK-I.9): N124N225D (protein) parent chain: MARWLLQILIISSLHLSSVSSQQETSFVYESFLDRQNLYLDKSAIVLPSGLLQLTNASEHQMGHAFHKKPIEFSSSGPLSFSTHFVCALVPKPGFEGGHGIVFVLSPSMDFTHAESTRYLGIFNASTNGSSSYHVLAVELDTIWNPDFKDIDHNHVGIDVNSPISVAIASASYYSDMKGSNESINLLSGNPIQVWVDYEGTLLNVSVAPLEVQKPTRPLLSHPINLTELFPNRSSLFAGFSAATGTAISDQYILWWSFSIDRGSLQRLDISKLPEVPHPRAPHKKVSTLIILLPVCLAILVLAVLAGLYFRRRRKYSEVSETWEKEFDAHRFSYRSLFKATKGFSKDEFLGKGGFGEVYRGNLPQGREIAVKRVSHNGDEGVKQFVAEVVSMRCLKHRNLVPLFGYCRRKRELLLVSEYMPNGSLDEHLFDDQKPVLSWSQRLVVVKGIASALWYLHTGADQVVLHRDVKASNIMLDAEFHGRLGDFGMARFHEHGGNAATTAAVGTVGYMAPELITMGASTGTDVYAFGVFMLEVTCGRRPVEPQLQVEKRHMIKWVCECWKKDSLLDATDPRLGGKFVAEEVEMVMKLGLLCSNIVPESRPTMEQVVLYLNKNLPLPDFSPYTLGIGTFAPVLVDASSLVVSSASWSLSGPSMSSSSPNHSPYAWQSTDQPWGQTIDTKNSLHIVAEPEKPSPAVKMVTLPAEDPQSNHSSISSQRVQPVKREKRRLHQILVAFPWINKQYFKLGLPKHIVHVSLFFFLQLARL | decreases
2 | DORN1 extracellular domain (atDORN1-ECD; LecRK-I.9): N124N128N204D (protein) parent chain: MARWLLQILIISSLHLSSVSSQQETSFVYESFLDRQNLYLDKSAIVLPSGLLQLTNASEHQMGHAFHKKPIEFSSSGPLSFSTHFVCALVPKPGFEGGHGIVFVLSPSMDFTHAESTRYLGIFNASTNGSSSYHVLAVELDTIWNPDFKDIDHNHVGIDVNSPISVAIASASYYSDMKGSNESINLLSGNPIQVWVDYEGTLLNVSVAPLEVQKPTRPLLSHPINLTELFPNRSSLFAGFSAATGTAISDQYILWWSFSIDRGSLQRLDISKLPEVPHPRAPHKKVSTLIILLPVCLAILVLAVLAGLYFRRRRKYSEVSETWEKEFDAHRFSYRSLFKATKGFSKDEFLGKGGFGEVYRGNLPQGREIAVKRVSHNGDEGVKQFVAEVVSMRCLKHRNLVPLFGYCRRKRELLLVSEYMPNGSLDEHLFDDQKPVLSWSQRLVVVKGIASALWYLHTGADQVVLHRDVKASNIMLDAEFHGRLGDFGMARFHEHGGNAATTAAVGTVGYMAPELITMGASTGTDVYAFGVFMLEVTCGRRPVEPQLQVEKRHMIKWVCECWKKDSLLDATDPRLGGKFVAEEVEMVMKLGLLCSNIVPESRPTMEQVVLYLNKNLPLPDFSPYTLGIGTFAPVLVDASSLVVSSASWSLSGPSMSSSSPNHSPYAWQSTDQPWGQTIDTKNSLHIVAEPEKPSPAVKMVTLPAEDPQSNHSSISSQRVQPVKREKRRLHQILVAFPWINKQYFKLGLPKHIVHVSLFFFLQLARL | decreases
3 | DORN1 extracellular domain (atDORN1-ECD; LecRK-I.9): N128N204N225D (protein) parent chain: MARWLLQILIISSLHLSSVSSQQETSFVYESFLDRQNLYLDKSAIVLPSGLLQLTNASEHQMGHAFHKKPIEFSSSGPLSFSTHFVCALVPKPGFEGGHGIVFVLSPSMDFTHAESTRYLGIFNASTNGSSSYHVLAVELDTIWNPDFKDIDHNHVGIDVNSPISVAIASASYYSDMKGSNESINLLSGNPIQVWVDYEGTLLNVSVAPLEVQKPTRPLLSHPINLTELFPNRSSLFAGFSAATGTAISDQYILWWSFSIDRGSLQRLDISKLPEVPHPRAPHKKVSTLIILLPVCLAILVLAVLAGLYFRRRRKYSEVSETWEKEFDAHRFSYRSLFKATKGFSKDEFLGKGGFGEVYRGNLPQGREIAVKRVSHNGDEGVKQFVAEVVSMRCLKHRNLVPLFGYCRRKRELLLVSEYMPNGSLDEHLFDDQKPVLSWSQRLVVVKGIASALWYLHTGADQVVLHRDVKASNIMLDAEFHGRLGDFGMARFHEHGGNAATTAAVGTVGYMAPELITMGASTGTDVYAFGVFMLEVTCGRRPVEPQLQVEKRHMIKWVCECWKKDSLLDATDPRLGGKFVAEEVEMVMKLGLLCSNIVPESRPTMEQVVLYLNKNLPLPDFSPYTLGIGTFAPVLVDASSLVVSSASWSLSGPSMSSSSPNHSPYAWQSTDQPWGQTIDTKNSLHIVAEPEKPSPAVKMVTLPAEDPQSNHSSISSQRVQPVKREKRRLHQILVAFPWINKQYFKLGLPKHIVHVSLFFFLQLARL | decreases
4 | DORN1 extracellular domain (atDORN1-ECD; LecRK-I.9): N204N225D (protein) parent chain: MARWLLQILIISSLHLSSVSSQQETSFVYESFLDRQNLYLDKSAIVLPSGLLQLTNASEHQMGHAFHKKPIEFSSSGPLSFSTHFVCALVPKPGFEGGHGIVFVLSPSMDFTHAESTRYLGIFNASTNGSSSYHVLAVELDTIWNPDFKDIDHNHVGIDVNSPISVAIASASYYSDMKGSNESINLLSGNPIQVWVDYEGTLLNVSVAPLEVQKPTRPLLSHPINLTELFPNRSSLFAGFSAATGTAISDQYILWWSFSIDRGSLQRLDISKLPEVPHPRAPHKKVSTLIILLPVCLAILVLAVLAGLYFRRRRKYSEVSETWEKEFDAHRFSYRSLFKATKGFSKDEFLGKGGFGEVYRGNLPQGREIAVKRVSHNGDEGVKQFVAEVVSMRCLKHRNLVPLFGYCRRKRELLLVSEYMPNGSLDEHLFDDQKPVLSWSQRLVVVKGIASALWYLHTGADQVVLHRDVKASNIMLDAEFHGRLGDFGMARFHEHGGNAATTAAVGTVGYMAPELITMGASTGTDVYAFGVFMLEVTCGRRPVEPQLQVEKRHMIKWVCECWKKDSLLDATDPRLGGKFVAEEVEMVMKLGLLCSNIVPESRPTMEQVVLYLNKNLPLPDFSPYTLGIGTFAPVLVDASSLVVSSASWSLSGPSMSSSSPNHSPYAWQSTDQPWGQTIDTKNSLHIVAEPEKPSPAVKMVTLPAEDPQSNHSSISSQRVQPVKREKRRLHQILVAFPWINKQYFKLGLPKHIVHVSLFFFLQLARL | decreases
5 | DORN1 extracellular domain (atDORN1-ECD; LecRK-I.9): N124N204N225D (protein) parent chain: MARWLLQILIISSLHLSSVSSQQETSFVYESFLDRQNLYLDKSAIVLPSGLLQLTNASEHQMGHAFHKKPIEFSSSGPLSFSTHFVCALVPKPGFEGGHGIVFVLSPSMDFTHAESTRYLGIFNASTNGSSSYHVLAVELDTIWNPDFKDIDHNHVGIDVNSPISVAIASASYYSDMKGSNESINLLSGNPIQVWVDYEGTLLNVSVAPLEVQKPTRPLLSHPINLTELFPNRSSLFAGFSAATGTAISDQYILWWSFSIDRGSLQRLDISKLPEVPHPRAPHKKVSTLIILLPVCLAILVLAVLAGLYFRRRRKYSEVSETWEKEFDAHRFSYRSLFKATKGFSKDEFLGKGGFGEVYRGNLPQGREIAVKRVSHNGDEGVKQFVAEVVSMRCLKHRNLVPLFGYCRRKRELLLVSEYMPNGSLDEHLFDDQKPVLSWSQRLVVVKGIASALWYLHTGADQVVLHRDVKASNIMLDAEFHGRLGDFGMARFHEHGGNAATTAAVGTVGYMAPELITMGASTGTDVYAFGVFMLEVTCGRRPVEPQLQVEKRHMIKWVCECWKKDSLLDATDPRLGGKFVAEEVEMVMKLGLLCSNIVPESRPTMEQVVLYLNKNLPLPDFSPYTLGIGTFAPVLVDASSLVVSSASWSLSGPSMSSSSPNHSPYAWQSTDQPWGQTIDTKNSLHIVAEPEKPSPAVKMVTLPAEDPQSNHSSISSQRVQPVKREKRRLHQILVAFPWINKQYFKLGLPKHIVHVSLFFFLQLARL | decreases
6 | DORN1 extracellular domain (atDORN1-ECD; LecRK-I.9): N124N128N204N225D (protein) parent chain: MARWLLQILIISSLHLSSVSSQQETSFVYESFLDRQNLYLDKSAIVLPSGLLQLTNASEHQMGHAFHKKPIEFSSSGPLSFSTHFVCALVPKPGFEGGHGIVFVLSPSMDFTHAESTRYLGIFNASTNGSSSYHVLAVELDTIWNPDFKDIDHNHVGIDVNSPISVAIASASYYSDMKGSNESINLLSGNPIQVWVDYEGTLLNVSVAPLEVQKPTRPLLSHPINLTELFPNRSSLFAGFSAATGTAISDQYILWWSFSIDRGSLQRLDISKLPEVPHPRAPHKKVSTLIILLPVCLAILVLAVLAGLYFRRRRKYSEVSETWEKEFDAHRFSYRSLFKATKGFSKDEFLGKGGFGEVYRGNLPQGREIAVKRVSHNGDEGVKQFVAEVVSMRCLKHRNLVPLFGYCRRKRELLLVSEYMPNGSLDEHLFDDQKPVLSWSQRLVVVKGIASALWYLHTGADQVVLHRDVKASNIMLDAEFHGRLGDFGMARFHEHGGNAATTAAVGTVGYMAPELITMGASTGTDVYAFGVFMLEVTCGRRPVEPQLQVEKRHMIKWVCECWKKDSLLDATDPRLGGKFVAEEVEMVMKLGLLCSNIVPESRPTMEQVVLYLNKNLPLPDFSPYTLGIGTFAPVLVDASSLVVSSASWSLSGPSMSSSSPNHSPYAWQSTDQPWGQTIDTKNSLHIVAEPEKPSPAVKMVTLPAEDPQSNHSSISSQRVQPVKREKRRLHQILVAFPWINKQYFKLGLPKHIVHVSLFFFLQLARL | decreases
7 | DORN1 extracellular domain (atDORN1-ECD; LecRK-I.9): N128N204D (protein) parent chain: MARWLLQILIISSLHLSSVSSQQETSFVYESFLDRQNLYLDKSAIVLPSGLLQLTNASEHQMGHAFHKKPIEFSSSGPLSFSTHFVCALVPKPGFEGGHGIVFVLSPSMDFTHAESTRYLGIFNASTNGSSSYHVLAVELDTIWNPDFKDIDHNHVGIDVNSPISVAIASASYYSDMKGSNESINLLSGNPIQVWVDYEGTLLNVSVAPLEVQKPTRPLLSHPINLTELFPNRSSLFAGFSAATGTAISDQYILWWSFSIDRGSLQRLDISKLPEVPHPRAPHKKVSTLIILLPVCLAILVLAVLAGLYFRRRRKYSEVSETWEKEFDAHRFSYRSLFKATKGFSKDEFLGKGGFGEVYRGNLPQGREIAVKRVSHNGDEGVKQFVAEVVSMRCLKHRNLVPLFGYCRRKRELLLVSEYMPNGSLDEHLFDDQKPVLSWSQRLVVVKGIASALWYLHTGADQVVLHRDVKASNIMLDAEFHGRLGDFGMARFHEHGGNAATTAAVGTVGYMAPELITMGASTGTDVYAFGVFMLEVTCGRRPVEPQLQVEKRHMIKWVCECWKKDSLLDATDPRLGGKFVAEEVEMVMKLGLLCSNIVPESRPTMEQVVLYLNKNLPLPDFSPYTLGIGTFAPVLVDASSLVVSSASWSLSGPSMSSSSPNHSPYAWQSTDQPWGQTIDTKNSLHIVAEPEKPSPAVKMVTLPAEDPQSNHSSISSQRVQPVKREKRRLHQILVAFPWINKQYFKLGLPKHIVHVSLFFFLQLARL | decreases
8 | DORN1 extracellular domain (atDORN1-ECD; LecRK-I.9): N124N128N225D (protein) parent chain: MARWLLQILIISSLHLSSVSSQQETSFVYESFLDRQNLYLDKSAIVLPSGLLQLTNASEHQMGHAFHKKPIEFSSSGPLSFSTHFVCALVPKPGFEGGHGIVFVLSPSMDFTHAESTRYLGIFNASTNGSSSYHVLAVELDTIWNPDFKDIDHNHVGIDVNSPISVAIASASYYSDMKGSNESINLLSGNPIQVWVDYEGTLLNVSVAPLEVQKPTRPLLSHPINLTELFPNRSSLFAGFSAATGTAISDQYILWWSFSIDRGSLQRLDISKLPEVPHPRAPHKKVSTLIILLPVCLAILVLAVLAGLYFRRRRKYSEVSETWEKEFDAHRFSYRSLFKATKGFSKDEFLGKGGFGEVYRGNLPQGREIAVKRVSHNGDEGVKQFVAEVVSMRCLKHRNLVPLFGYCRRKRELLLVSEYMPNGSLDEHLFDDQKPVLSWSQRLVVVKGIASALWYLHTGADQVVLHRDVKASNIMLDAEFHGRLGDFGMARFHEHGGNAATTAAVGTVGYMAPELITMGASTGTDVYAFGVFMLEVTCGRRPVEPQLQVEKRHMIKWVCECWKKDSLLDATDPRLGGKFVAEEVEMVMKLGLLCSNIVPESRPTMEQVVLYLNKNLPLPDFSPYTLGIGTFAPVLVDASSLVVSSASWSLSGPSMSSSSPNHSPYAWQSTDQPWGQTIDTKNSLHIVAEPEKPSPAVKMVTLPAEDPQSNHSSISSQRVQPVKREKRRLHQILVAFPWINKQYFKLGLPKHIVHVSLFFFLQLARL | decreases
